# Experimental data as given in article PMC10524254.
# Like-named read-outs stand apart in the source and are kept apart here.
substance,measurement,setting,value
CD79A: N112Q,localisation_or_trafficking,N-glycosylation at N112,no change
CD79B: N73Q,localisation_or_trafficking,N-glycosylation at N73,no change
CD79B: N101Q,localisation_or_trafficking,N-glycosylation at N101,no change
IgM: N209Q,localisation_or_trafficking,N-glycosylation at N209,no change
